Measured values taken from US20250114433A1 (published 2025).

Tests used:
[1] = molecular target: A2/KRAS G12V 5-14 (human), A*02:0; test: flow cytometry, Tet+ gate frequency; A2/KRAS G12V 5-14 tetramer at 1:400; no-tetramer control Tet+ 0
[2] = molecular target: T1, KRAS G12V (same sequence in NRAS and HRAS G12V) peptide on HLA-A*11:01 (human); test: cytokine release
T1 peptide: VVGAVGVGK

[3] = molecular target: T2, KRAS G12V (same sequence in NRAS and HRAS G12V) peptide on HLA-A*11:01 (human); test: cytokine release
T2 peptide: VVVGAVGVGK

[4] = molecular target: T3, KRAS G12D (same sequence in NRAS and HRAS G12D) peptide on HLA-A*11:01 (human); test: cytokine release
T3 peptide: VVVGADGVGK

[5] = molecular target: HLA-A2 (DM)/KRAS (5-14_G12V)-peptide multimer; test: flow cytometry, Tet+ gate frequency; A2DM/KRAS G12V 5-14 tetramer at 1:100 [Continued]
[6] = molecular target: HLA-A2 (DM)/KRAS (5-14_G12V)-peptide multimer; test: flow cytometry, Tet+ gate frequency; A2DM/KRAS G12V 5-14 tetramer at 1:50 [Continued]
[7] = molecular target: HLA-A2 (DM)/KRAS (5-14_G12V)-peptide multimer; test: flow cytometry, Tet+ gate frequency; A2DM/KRAS G12V 5-14 tetramer at 1:200 [Continued]
[8] = molecular target: KRAS 7-16(G12D) SCT tetramer #2 (human); test: flow cytometry, tetramer labelling of TCR-transduced donor X CD8+ T cells, Tetramer APC against CD8 ef450 [Continued]
[9] = molecular target: KRAS 7-16(G12V) SCT tetramer #7; test: as above
[10] = molecular target: HLA-A2 (DM)/KRAS (5-14_G12V)-peptide multimer; test: flow cytometry, Tet+ gate frequency; A2DM/KRAS G12V 5-14 tetramer at 1:400 [Continued]
[11] = molecular target: T4, KRAS G12V peptide on HLA-A*02:01 (human); test: multimer staining
T4 peptide: KLVVVGAVGV

B1: TCR13 (TCR, V domains shown)
Valpha: QKEVEQDPGPLSVPEGAIVSLNCTYSNSAFQYFMWYRQYSRKGPELLMYTYSSGNKEDGRFTAQVDKSSKYISLFIRDSQPSDSATYLCAMSASAAGNKLTFGGGTRVLVKP
Vbeta: EADIYQTPRYLVIGTGKKITLECSQTMGHDKMYWYQQDPGMELHLIHYSYGVNSTEKGDLSSESTVSRIRTEHFPLTLESARPSHTSQYLCASSEGLYNEQFFGPGTRLTVL
For B1, the Tet+ [1] was 84.6, the binding result [2] was “no recognition” and the binding result [3] was “no recognition”. The binding result [4] was “recognises”, the Tet+ [5] was 45 and the Tet+ [6] was 58.7. The Tet+ [7] was 33.7, the tetramer gate (share of cells in the gate; unit not given) [8] was 82.8 and the tetramer gate (share of cells in the gate; unit not given) [9] was 5.19. It also gave a Tet+ [10] of 9.2.

B2: TCR_20 (TCR, V domains shown)
V domain 1: DAKTTQPPSMDCAEGRAANLPCNHSTISGNEYVYWYRQIHSQGPQYIIHGLKNNETNEMASLIITEDRKSSTLILPHATLRDTAVYYCIVRLNSGNTPLVFGKGTRLSVIA
V domain 2: EAGVAQSPRYKIIEKRQSVAFWCNPISGHATLYWYQQILGQGPKLLIQFQNNGVVDDSQLPKDRFSAERLKGVDSTLKIQPAKLEDSAVYLCASSPTFPAGDRDTQYFGPGTRLTVLE
For B2, the tetramer gate (share of cells in the gate; unit not given) [8] was 3.48 and the tetramer gate (share of cells in the gate; unit not given) [9] was 3.96.

B3: 141_1 TCR (TCR, V domains shown)
V domain 1: AQTVTQSQPEMSVQEAETVTLSCTYDTSESDYYLFWYKQPPSRQMILVIRQEAYKQQNATENRFSVNFQKAAKSFSLKISDSQLGDAAMYFCALKTSYDKVIFGPGTSLSVIP
V domain 2: NAGVTQTPKFQVLKTGQSMTLQCAQDMNHEYMSWYRQDPGMGLRLIHYSVGAGITDQGEVPNGYNVSRSTTEDFPLRLLSAAPSQTSVYFCASSLGAGEWKSPLHFGNGTRLTVTE
With B3 the tetramer gate (share of cells in the gate; unit not given) [8] was 14.8 and the tetramer gate (share of cells in the gate; unit not given) [9] was 4.06.

B4: A2 KRAS TCR19 (TCR, V domains shown)
Valpha: AQSVSQHNHHVILSEAASLELGCNYSYGGTVNLFWYVQYPGQHLQLLLKYFSGDPLVKGIKGFEAEFIKSKFSFNLRKPSVQWSDTAEYFCAVNDPSDYKLSFGAGTTVTVRA
Vbeta: DGGITQSPKYLFRKEGQNVTLSCEQNLNHDAMYWYRQDPGQGLRLIYYSQIVNDFQKGDIAEGYSVSREKKESFPLTVTSAQKNPTAFYLCASRSDRNEQFFGPGTRLTVL
B4: recognises [11].
